Consider 50 sequences from the domain aggregation screens of Martell et al. (2025).

Some results are limits rather than exact numbers.

The nature of this series: soluble fraction after stress (log2 fold change); higher = more stays soluble; pooled small domains, quantitative proteomics. Conditions: stress: pH 4. The essentials:
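Following acid stress at pH 4, the amount of each small protein domain still soluble was measured in pooled custom libraries by high-throughput quantitative proteomics. Its fold change, on a log2 scale, is higher when more of the domain stayed soluble. This fold change is taken as a measure of aggregation propensity.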
In the case of “HMSSLREQVADALRAHLVSGRMRPGVLYSAPKLAAEFGVSATPVREAMLDLVSEGLVDVVRNKGFRVT”, the “soluble fraction (log2)” value was 0.018.

For “HMSSPPNPQLAKRYISYSVDDIARLFGIHRHTVREWIKRGLPVIDQQRPLLVQGADLAEFLRKRRA”, the “soluble fraction (log2)” value amounted to 0.162.

Consider “HMSSPVIQINTRNDGWIIKLLQPAVEKDVLEGYLADVGLKLQSQMMEKILAAPAGTEFHIKRGSNILTE”, for which the “soluble fraction (log2)” value is -0.133.

For the sequence “HMSSQADEEALFKLLAANPYSDEQLEEIRIAIGSGIAYKDIIRIADIGNTAERMKQLRLEFTKDTAN”, the “soluble fraction (log2)” value is -0.353.

As for “HMSSQGSLEKGYSALLDGRLDDAALAYGAALAANPMERDALLGLAYVAHSKGRREEAQALYRKVLR”, the “soluble fraction (log2)” value is -0.53.

As for “HMSSSTFVGRVAVITIGEARQNSPAEARFKDRHGTTHYVMVEPMEDVVFKQGDKVLLVESAGATFKVIEPA”, the “soluble fraction (log2)” value is -0.00194.

For the sequence “HMSSTSISFNDFQKYWLSNDIKSFQLREDKMTVQGSLKNGTAYETVVPSERLFQFIGQHPKD”, the “soluble fraction (log2)” value is -0.127.

As to “HMSSVDLLSERERQVLARISRGMSNEEIAAELAITPRTVRNHLANIYGKIDVHSRAEAVVWARERGIT”, the “soluble fraction (log2)” value was -0.152.

Take “HMSSVEQAILETLSKEHSHLTSLQVFEEIRGRLPAVNQSTVYRALERLVEQGVVSVSDMGTHAAVYE”: the “soluble fraction (log2)” value came out at 0.119.

On to “HMSSVMMPDLTGESAIVAMERLQQLGLLPKVEEVDSYREPGIVLEQLPRAGEKIKRGRIAILKVSS”, for which the “soluble fraction (log2)” value was -0.131.

As for “HMSSVTGMERFLSSGAVKGIGKTMAARIVEHFGTETMTVLESFPERLAEVPGIGAKKAEAIGQSYSEISD”, the “soluble fraction (log2)” value was -0.259.

In the case of “HMSSVVARRARIATLVVETSVASQEELGRLLADEGITVTQATLSRDLDALGAVKVLSADGGTRYRIPGQ”, the “soluble fraction (log2)” value is -0.45.

With “HMSSVVVARTWTDTTGDFKVEAELLGVEGGLVRLKKEDGTVLSVPIAKLSTADRTFLQENQP”, the “soluble fraction (log2)” value is 0.22.

Consider “HMSSWEDNFSYWIRNVAETLDKDLLNVANSKLEKIIINAALDQTNGKKNEAAILLGLGRNTLAKKIKELG”, for which the “soluble fraction (log2)” value is -0.929.

As to “HMSSWEEQLKIWAKNELASGNTDILARATVSFEQILIEAALTHTGGRKKTAAELLGWGRNTLTRKIKELHI”, the “soluble fraction (log2)” value was -0.743.

For the sequence “HMSSWEVLAEPIQTVMRRYGVPGAYEKLKEVTRGKSLTAEALHALIRSLDIPQADKERLLALTPAAWA”, the “soluble fraction (log2)” value was -0.393.

As to “HMSSYAEVMERSKYLQLHKYKIWKSETDGFWRTYYLNEQGKRKMKKLKHSEDMIDFVIEYVQNNE”, the “soluble fraction (log2)” value was -1.06.

“HMSTDDILSSITALRLASVQFQLGQFDPALDSLKLVKEQAWSGAKNILAGDIQLAKGDKEAAKASYQQAQQ”: the “soluble fraction (log2)” value is -0.542.

With “HMSTDIPFNIFSQKWNADEIDSIVVENNKIEGKTKDNKKFSTYAPDELLTSLMENHKNPNVIVEFRAP”, the “soluble fraction (log2)” value was -0.646.

As for “HMSTDKIDIVSSAILSSLKDNDGFIGLTDKSPPPEIYTAFRVSKKVFKQAIGALYKQRRITLESSGIRLIS”, the “soluble fraction (log2)” value is -0.107.

For “HMSTDSTQLLGFNKTGEELPIYKEANEENKFAEIPQNVYVKNFGQNGEFTKIKYLDQEGYVKTAGLK”, the “soluble fraction (log2)” value worked out at 0.199.

Take “HMSTEEYDRGYEQGLEEAAKADDAWVANLIKIYSQNTPESMPETMKGRLDAFLYEQQRRAQSVPEM”: the “soluble fraction (log2)” value is -1.09.

Regarding “HMSTIAAMADPRAWALEMLGFPPGTVKPSKREIQVRFRESLRDVHPDHGGDSRTASASINDLSEARRVLLS”, the “soluble fraction (log2)” value was 0.0192.

With “HMSTLGIRIKHYRTDSNLTQKELAGLINVKRDALANWETDRALPDVMNLKKLAEVFQVSTDELLQV”, the “soluble fraction (log2)” value was -0.225.

On to “HMSTLTGTQRAAVVLMQMSPPNAARVMAQFTDAEAEEIAAEIVRLRKVDPEVAEQIMKDFHEAALSS”, for which the “soluble fraction (log2)” value is -0.645.

As for “HMSTLTLTSGTYAVGENIKAGKYTIMGSGSIAISSSGKARVNSNLTADRKDYVLNDDETIKIKGKAQFIPI”, the “soluble fraction (log2)” value worked out at 0.0425.

On to “HMSTMKIVRVKSNLKIGQEITSKDIEVVEVGAYNMPSEVMKNSEDVIGKYASAEMIKGEYVLAAKISDTP”, for which the “soluble fraction (log2)” value is -0.902.

In the case of “HMSTMNRLPRHEQILKLVRANGFMPIEELARLLDVTPQTIRRDINTLSEENLLRRFHGGAALGPSVE”, the “soluble fraction (log2)” value came to 0.255.

As to “HMSTMTGTVDTPGASLNVRTGAWGPIVGQLAHGSKVTIIGSSGDWFKISYNGATRYVHKNYVNTT”, the “soluble fraction (log2)” value is -0.0624.

“HMSTMVEIPNVVGMTIKEAKEALGNLGLSISKISGSNEDSAIVTEVSPAPGSSVKRDESITLVGQPK”: the “soluble fraction (log2)” value is 0.12.

Regarding “HMSTPAKVTPTNPIVKQLFNAAETQIKNKDIQNAIASYEKADTLTTDEKVKQYIHYQLSTLKDDN”, the “soluble fraction (log2)” value is 0.0384.

“HMSTPERQEVLDILKRQGEMTPLQIAGQISRTSKSVSNILSKLKREGFVANGAKYGSWVSTES”: the “soluble fraction (log2)” value is 0.0778.

Regarding “HMSTPTVDTKTKLDLYNLLYKKDLNYLDAYNFVLDNFGSDNIDIMFKMLGLDFTNWVIENKPE”, the “soluble fraction (log2)” value was 0.0493.

For the sequence “HMSTQYKTGHYKTTDALNLRASYSTSSNVLLTIPKGKTIVVTRVHNNEWGQVEYNGKTGWIYLEYTAYTES”, the “soluble fraction (log2)” value is -0.387.

On to “HMSTSAAELLRTARQQAGMSQSAVAELAKTSQSAIAMYEAGNREPSLPVLQRLLAATGHQLSLSVLP”, for which the “soluble fraction (log2)” value amounted to 0.00437.

Take “HMSTTILSFQNRVVIETLHNEGRSLRYIANYLGFSKATIFNELHRLNSEYRAELAQADFERKVSQR”: the “soluble fraction (log2)” value is -0.53.

On to “HMSTVAETVYNEIRDDILYGELQPGVKLKLEALRERYSVGVNTLREVLNRLVASGFVFVEGQKGFRVV”, for which the “soluble fraction (log2)” value is -0.377.

Take “HMSTVEKDSELGGNFRIASYPTGKGQISEAIRSMIVRAKQVGVNIRLNTEATEEPLRALAPNAVILATG”: the “soluble fraction (log2)” value turned out to be 0.18.

In the case of “HMSTVELPVQINGKVRGRITVPANAGQEDVKQAALADSKVQRYIEGASIRKVIVVPRKLVNIVV”, the “soluble fraction (log2)” value was not below 0.43.

On to “HMSTVTGLINYLSSGLIKGVGEATARKLVDHFGLDVLDIIQFNPQRLLEVDGIGEARAEMIASSFSEQK”, for which the “soluble fraction (log2)” value was -1.48.

Take “HMSVDIIPGKADQKVRLIHDPAIVGVTTGGVKTAGPHTLIQIELGPNERPYKRLSLLELIPEG”: the “soluble fraction (log2)” value came to 0.00535.

As to “HMSVDVGMQLRKLREERKISMRELARLSGLSANALSMIERGLTSPSVSTLNKLAGALEVPITAFFRI”, the “soluble fraction (log2)” value was -0.00213.

On to “HMSVEVPNLIGKTLDQVDIDLKSLDLSFVILDSARYNSSFKPLSVIDHQPISGAKVKVNRKIYLTINPS”, for which the “soluble fraction (log2)” value is -0.358.

As to “HMSVKIELNENEQAIFTAVQKVNEAVLPELRAQFSDMSNKAWDNSVKMLTKNNLLKVSKEGEILYIRM”, the “soluble fraction (log2)” value stood at 0.0421.

Regarding “HMSVKSVSLRKISYKVRRGDSLYNIAKNFSLSINDITHWNSINKKSYLQPGQRLTLYINPRN”, the “soluble fraction (log2)” value came to 0.193.

As for “HMSVKVFRDQILLNNDSDKMLQLSFSNLFGQKVLETSISPGKSAISTGNLPPGIYFITTSPATGVMRVII”, the “soluble fraction (log2)” value was -0.544.

Consider “HMSVLRLGNRGPDVRKLQLLLNSTLVPSPQLTVDGDFGKRTEQAVVTFQQMRGLPQDGIVGQRTWALLGQT”, for which the “soluble fraction (log2)” value is 0.241.

For “HMSVLSVASKNQAINPGQVVALLKDGIKLNDDGRVEILDNNNNIRYNEKGNLLSIEERVKEFLDANPHFRQ”, the “soluble fraction (log2)” value is -0.134.

For “HMSVLVLPMLKELTHEDREVVELFYLNDMSVREIALIISVPIGTVKSRLHRARAQLKHQIVNLNQ”, the “soluble fraction (log2)” value was -1.18.

On to “HMSVPVNAPMPGTILDIKVKAGAAVKAGDVVMILEAMKMENEISAPQDGTIASIDVRKGDTVNSGDVLYTM”, for which the “soluble fraction (log2)” value was -0.00195.
